Patent US20240026407A1, “MODIFICATION OF SAPONINS” (GLAXOSMITHKLINE BIOLOGICALS SA, priority 2020, published 2024)

What was measured:
Format in all cases: biochemical, Quillaja saponaria
[1] = Experiment 5-1: screening of additional glucosidases for deglycosylation with purified QS-18 (0.04 mg/ml) at pH 7.5 and 30 deg C; details: pH 7.5, 30 degrees C, 18 hours, LCMS/MS
Method: The 94 additional genes, together with positive control (DNA encoding SEQ ID No. 262) and negative control, were transformed, expressed, lysed and reacted in the same manner as described above for Experiment 4-1, except the reaction was incubated at 30 degrees C. for 18 hours.
Samples were analysed by LCMS/MS according to the procedure in Experiment 4-1.

[2] = Experiment 5-2: screening of additional glucosidases for deglycosylation with QS-18 in crude bark extract (80%) at pH 6 and 35 deg C; details: CBE 80%, pH 6, 35 deg C, 18 hours; UV HPLC
How it was run: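 Clarified glucosidase lysate (prepared at pH 6) was incubated with pH 6-adjusted crude bark extract at 35 deg C with shaking for 18 hours. Reactions were quenched with MeCN containing 2% AcOH and hexanophenone, then analysed by UV HPLC.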

[3] = Experiment 5-3: screening of additional glucosidases for deglycosylation with QS-18 in treated bark extract (80%) at pH 6 and 35 deg C; details: TBE 80% (QS-21 approx. 4 g/L), pH 6, 35 deg C; UV HPLC
Method: Experiment 5-1 was repeated, replacing CBE with Treated Bark Extract (TBE) at pH 6. TBE was prepared from CBE by PVPP treatment and concentration, to provide TBE with a QS-21 concentration of approximately 4 g/L. TBE was adjusted to pH 6 by dropwise addition of 2M NaOH with stirring.

Molecule | Experiment 5-1 % conv [1] [%] | Experiment 5-2 % conv [2] [%] | Experiment 5-3 % conv [3] [%]
890 (protein, listed as Arthrobacter ulcerisalmonis) MNLPLSPAVTAPAAGSPDAEALIHNLADSLSLAEQVQLLTGADVWSTHTLPSIGLSRIVLSDGPAGVRGEDFDERHDSVSLPSSSALSASWSAELAHRYGQVLGQEARRKGVHAVLGPTINLHRSPLGGRHFECMSEDPRLTATMAAGYVAGVQSMGVGATPKHYLANESETDRFTVDSVVAERPLRELYLAAFEDAITESRAWLVMSSYNSINGTTASENDLLETPLSTEWGFDGVVVSDWTGVRSVEAANAHQDLEMPGPVGHWSAKLLAAVESGQVSREAIVEKVVRILRLAARVGSLDGVSPAVAELPAALDSAAVAREVAIRGAVLIRNSAGLLPLDASALTSVALSGHNADEARTQGGGSATVMPKQNISPLMGLREALPATTSLSYTRGAKVAEGLQQFARTALHNPVSNVPGARVTFLDASGTEIFAEDRLASSLIWFGVGIPEGTAAITISTDWTAEQAGVHHLGLGTVGQARLSFNGTEVFNGELLDTTNVLGAALFDPPSTVHQIETTAGETVRIEAHYTLPPEQFIPLTAILLGEEAVVTDPQAEIDDAVAAASSADVAIVVVGTNSSIESEGFDRSNLDLPGHQNELVRAVAAANPRTIVVVNSGSPVLMPWLEDVGAVLLGWFGGQEFGRAIADILLGVAEPGGRLPTSWPAALADVPVLSTTPVEGKLEYAEGIHVGYRAWLQQQAAGGPAPAVPFGFGLGYTSFEFSAPHAPQQVQAGNDVIVHVPVRNTGSRAGREVVQVYLERPDSTVERPVRWLAGFAGTHLAPAGTESVEVRIPARAFEHYDGGWQVERGAFRILVGKHVEDDFQVLAIDVR | 12.6 | <0.5 | <0.5
810 (protein, listed as Cutibacterium avidum) MTPAEITDLISQLTLEEKASLCSGGDSWHLQTVEKLGIPGPMVTDGPHGLRKVADGSMAGIYDSVPATCFPTAAGLASTWDPELVHDIGVALGEETRAESVSVLLGPGINMKRSPLCGRNFEYFSEDPVLAGTLATELVRGIQSQGVGTSLKHFAANNQETDRLRVNAEIDERTLREIYLPAFEMVVKQADPWTVMCSYNAINGVYSSQNRWLLTELLHEEWGYKGLVISDWGAVVNRVEGLRAGLDLEMPGDAPRNDARIVEAVRSGDLDEEILDTAVARILSLIARASAAMADPGSYDIEAHHQLARRAAAASVVLLKNDGDVLPLIDPDDVVVIGEFARTPRYQGAGSSKVNPTRVDTALDSLRQTWDDVPFAPGFTLTDHPDPQLADEAVSLSRGKTAVLFLGLPAVAESEGYDRTNTDLPTDQIDLLARVRKVASHTIVVLSNGSSVGTAEWDDQADAIVECWLGGQASGSGVIDVLTGKVNPSGHLAETITRKLSDIPAQLNFPGEFQHVTYGEGRYIGYRGLDATEREVAYPFGHGLSYTTFAYCDLDLLVRPVSDETAQDETVLTVSFTVSNTGDRAGATVPQVYLGFPDATVDRCVRELKAFLRVELDPGESRSITIDLTRRDLSYWDILLHSWTVEPGTVRVEVGISSRDLPLTGEVILDAPTVRHPLRRDSTVAEWMDADEEFAAKVRRATEQTGIDLDSDPTTAAFILAMPAYKMLQMAPIMTPEELDKMLGD | 22.7 | <0.5 | <0.5
849 (protein, listed as Bifidobacterium merycicum) MSDNTYPSVNDLTLEEEASLTSGGDAWHLQGVEAKGIPGYMITDGPHGLRKSLASNTGETDLNDSVPATCFPPAAGLSSSWNPELIRQVGEAMGEECIQEKVAVILGPGVNIKRNPLGGRCFEYWSEDPYLAGHEAVGIVAGVQSKGVGTSLKHFAANNQETDRLRVSANISQRALREIYFPAFEHIVKTAQPWTIMCSYNRINGVHSAQNRWLLTDVLRDEWGFEGIVMSDWGADHDRVASLNAGLNLEMPPTYTDDQIVYAARDGRIQPEQLDRMAQGMIDLVNKTRAAMSVEDYRFDVDAHNEIARRAAVESMVLLKNDDAILPVSRDAKIAVIGEFARTPRYQGGGSSHITPTKMTGFLDALAERGVPVDFAPGFTLDLEPTDPALEAEAVIAARDADVVLMFLGLPEAAESEGFDRDTLDIPAKQIELLKAVAAENKNVVVILSNGSVVSVAPWANNAKGILESWLLGQAGGAALADVIFGDVSPSGKLAQSVPMDINDDPSMINWPGEEGHVDYGEGVFVGYRYYDTYGKAVDYPFGYGLSYATFEIGGVKAVKTGANTARVSATVTNTSDVDAAETVQVYVAPGKADVARPKHELKAFRKVFLKAHESAEVSFDLDESAFAYWSEKFNDWHVEAGEYGIEVGMSSRDIAGVATVALDGDGKALPLTEWSTFGEWSADPVGSKVVADVREAGERGELPKLPDNDMMRMFLGSMPINSMSTLMGESGKAISSFMLDGYAKLVG | 17.8 | <0.5 | <0.5
841 (protein, listed as Mycetocola reblochoni) MTTPRPSLEQKAALTSGRDTWHSESLDDIPVMMMTDGPHGLRQQLQDGGDALGIGNSVPATCFPPAAGLASSWNTGLVERVGVALGTEARATEIRILLGPGLNIKRSPLGGRNFEYFSEDPRVSGELAAAMVTGIQSMGVAATPKHFAVNNQETDRLRVSAEVDERALREIYLSAFERVVTVASPWAFMSSYNRINGVYASENHWLLTELLREEWGFDGLVMSDWGAVNDRVAALAAGLELEMPPTGTDQLIVDAVRTGELDEAVLDRAVDRLRLLAERTERPPLTGYDADAHDDLARSAAQESIVLLKNADVLPLDAAATPRIAVVGEFARTPRYQGGGSSRVVPTRMHSALDALTDALGLGADGLSFSPGFALDGDTPAGAADEAVAAVEAADVAVLFLGLPDGTESEGFDRTTIALPAEQLHLLERAAATTTPVVVVLSNGAVVDVASWEHHADAILEAWLLGQAGGLAIADVLLGTVSPSGKLAETIPLDLADTPSHLSFPGRDGVVVYGESVYVGYRHYDTRRLPVAYPFGFGLSYTRFEYSELEVTATGRNSWTVAATVTNVGERRGAETVQLYIGVEQDRPDRPVHELRGFAKVDLEPGESARVELPVTERDLSHWSVRDGAWRVEKGRYTVELAAHSRDVRLATTITSEGDGVVTRLNGMSTVGEWLDHPYGREQIQWFIDGVDTRFGATAPEMIVMLKQLPIAKLTTFGIGLDSARIERMCAEAAADGERHGEQP | 12.3 | <0.5 | <0.5
894 (protein, listed as Microbacterium sp.) MSDSVAQPSVTDLTLEEKASLTSGADFWTTTAIDRAGVPSIMMTDGPHGLRKQADGNDHVGLANSVPATCFPPAVGLSATFDPELAVRVGEALGVESAIENVAVILGPGINIKRSPLCGRNFEYMSEDPIVSGVMGGALVRGIQSRGVGASLKHFAANNQETDRLRVSSDVDPRPLREIYLRGFQIAIEGAQPWTVMCSYNRINGAYASEDPWLLTSVLRDEWGFEGLVVSDWGAVNDRVAGVIAGLDLEMPSSGGATDAQLVAAVRDGSLDEAALDVVARRVLDLVQKAGRRPAIDGHLDIDAHHALAREVAGRAIVLLKNDDRVLPLAAEQKVAVIGAFAETPRFQGAGSSLINPTRLDSALDGFAEYAAEGAVTYAAGFALDGSGDADVLRAEAVAAASASEVAVVFLGIPASAESEGFDREHIDLPADQLALLDAVLVANPRTVVVLSNGGVVALPFADRVPAIIEGWLLGQAGGSATADVLYGAVNPSGRLAETIPVRLEDNPSYGNFPGEHGHVRYGEGLFVGYRWYDERGLDVTFPFGHGLSYTTFAYGDAQASVRSDGDMAVRIAVTNTGERAGRELVQVYTALQGSAVQRAPRELKAFQSVALEAGETREVELIVRRDDLAYWDVRVDRWVVEGGEYEVHVGASSRDIRSVASAEVAGDELVLPASLNSSITELLAHPVLGERMRALVAAAFGPGAESEGALQVLGSFPIGRLAAFPNVPATRDEIERMIAQA | 21.3 | <0.5 | <0.5
803 (protein, listed as Penicillium italicum) MVQEKDISTADAVLASLTLEEKVSLLAGGSFWSTAAIPGKSIPSVKFSDGPNGARGSEMKGGPTSACFPCAVSLAATWNLDAIKEVGKALAEETKTKGANLLLGPTVCPHRHPLGGRNFESFSEDPFLSGMMASEYIVGLQGQGIGAAIKHFAANEQETFRNILDVTVSMRALREIYLKPFEIAIKQAKPWALMTAYNSVNGSHADCNSTLLQQILREEWKWDGLVLSDWGGTNSLVESLTAGLDLEMPGPPTVRKSELIMQALESNAIPESIINDRARAVLRFVATTTGFGPQKECKEYADDRPSHRELIRQVGREGIVLLKNEDDILPLKHTASAGSLTKIALLGFADEALIHGGGSAAVNAHHRITLAEGLRDAFKDRGLEIECAKGAHTLRKLPLMVDHVKNDEGKPGWSMQFLHPKDPAGVWRHIGEPSYTPTAPGNEGMTVRATTQFCVPASGRHYLSLSGLGPSSLKINGDEVYRQDGNCPDLMAFILTSYADIPVQYDFVAGQTYHIEVLSNPLEAYNGPSFMNGRAGFSVGFMLEAERDADLLAEAVTLASRSDIAIILTGNTAEWEAEGQDQVGFHLPRDGSQDRLVSAVAAANKSTIVVNCTGGPIAMPWIHEVKALLQAWFPGQEAGHSIADILVGDRFPSGRLPVTFPRAIEDTPAYRNFPGGFEEDGRARVRYEEGVFVGYRFYDHTPEQREKVLFPFGYGLSYTSFTLHDISLATLKDHHENHIEVRVSVSNVGKRRGTETIQVYVGRADHSEQHPWKTLVAFAQVSLDAGETREMSLELSRRDLAFYDESTEHWVVEASDYLVHVGTSVFEIASTERLHIPERIDYAL | 13.1 | <0.5 | <0.5
